Tests used:
[1] = target: periplasmic domain of TraE (plasmid pKM101); experiment: cross-linking
[2] = target: N-terminally His-tagged, full-length TraE (VirB8 homolog) from plasmid pKM101 (plasmid pKM101); experiment: negative-stain EM

Row | Substance | stoichiometry N [1] | stoichiometry N [2]
1 | periplasmic domain of TraE (domain or fragment) | 2 | –
2 | N-terminally His-tagged, full-length TraE (VirB8 homolog) from plasmid pKM101 (natural protein) | – | 6
